In the assay the target is rat/human corticotropin releasing factor (r/h CRF), 41-residue peptide (rat/human (same molecule)). As to the kind of experiment: method not stated.

What is called Kd is the free concentration of one partner at which half of the binding sites on the other are occupied at equilibrium, for simple one-to-one binding. A low value points to tighter binding. Take “recombinant rat CRF-binding protein (rCRF-BP), secreted by transfected COS7 cells”: the Kd came to 0.1 nM.

For the origin of these results see patent EP0568622B1.
